The text below walks through data of patent US6528620B1, “Sid-polyamide fusions: a potent method of regulating gene expression” (University of Utah Research Foundation, priority 1999, dated 2003).

Where no end group is shown, it is not given here.

First the molecules themselves.
B3: VP16PAH2 (amino acids 251-404 of mSin3A encoding the PAH2 domain fused to the VP16 activation domain) (other)
chain: SKPSQLQAHTPASQQTPPLPPYASPRSPPVQPHTPVTISLGTAPSLQNNQPVEFNHAINYVNKIKNRFQGQPDIYKAFLEILHTYQKEQRNAKEAGGNYTPALTEQEVYAQVARLFKNQEDLLSEFGQFLPDANSSVLLSKTTAEKVDSVRNDH
notes: range 251-404; Prey of the directed two-hybrid assay in S. cerevisiae L40

The subject of test [1] is GAL4 DNA binding domain-responsive reporter. The test can be described thus: Transcription assay, Gal4-14D luciferase reporter in 293 cells. In kind it is cell-based. As to conditions: relative to the GALDBD alone level, 24 h after transfection. How it is done:
Transcription Assays—293 cells were grown in Dulbecco's modified Eagle's medium with 10% defined calf serum (HyClone). 2×10^5 cells were planted on 60-mm dishes and transfected with 200 ng of the Gal4-14D luciferase reporter (Ayer et al., Mol. Cell Biol. 16:5772-5781 (1996)) and 1 μg of the indicated expression vector. Cells harvested 24 h after transfection and luciferase and β-galactosidase activity measured according to the manufacturers' protocols (Promega and Tropix). Each transfection was performed at least twice in triplicate. Error shown is the standard of the mean.
To test whether this minimal thirteen residue interaction domain is sufficient to target a functional mSin3:HDAC corepressor complex to DNA, we fused amino acids 8-20 from Mad1 to the DNA binding domain of the yeast transcriptional activator GAL4 (GALDBD). The transcriptional activity of GALSID(8-20) WT was tested on a reporter containing four GAL4 binding sites cloned upstream of a minimal promoter (FIG. 6A). Consistent with our previous findings (Ayer et al., Mol. Cell. Biol. 16:5772-5781 (1996)), the GALDBD alone activates this reporter approximately 3-fold, and a fusion between the first 35 amino acids of Mad1 and the GALDBD repressed this level of reporter activity approximately 7-fold. […] Amino acids 10, 14, and 17 of the SID can be mutated to alanine without adversely affecting the interaction with PAH2 (FIG. 3). However, it is possible that these residues constitute a surface that interacts with other components of the mSin3-HDAC complex and/or components of the general transcriptional machinery. To test whether mutation of these residues may impair the ability of the SID to recruit a functional corepressor complex, we constructed a minimal SID containing the mutations Q10A, E14A, and D17A in the context of a GALDBD fusion (FIG. 6A).
In general terms: Reporter assays use an easily measured gene product as a stand-in for the process of interest.

The target of test [2] is mSin3-HDAC corepressor complex. The experiment in a line: cell-based or functional assay.
For test [3], the target named is B3. The test can be described thus: directed yeast two-hybrid assay (LexA-SID with VP16PAH2, beta-galactosidase).
Test [4] has as its target T1, LexA fused to amino acids 8-20 of wildtype Mad1 (bacterial; human, UniProt P0A7C2 1-202).
T1 construct: also called SID 8-20; minimal SID
T1 sequence: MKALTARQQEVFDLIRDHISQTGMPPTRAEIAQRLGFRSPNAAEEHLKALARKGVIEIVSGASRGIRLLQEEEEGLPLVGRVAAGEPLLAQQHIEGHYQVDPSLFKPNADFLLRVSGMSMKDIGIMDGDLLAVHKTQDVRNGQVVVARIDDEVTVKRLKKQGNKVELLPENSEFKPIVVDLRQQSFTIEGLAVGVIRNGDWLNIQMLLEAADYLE
Described as above.

In test [5] the target is T2, LexA fused to amino acids 1-57 of Mad1 (bacterial; human, UniProt P0A7C2 1-202; Q05195 1-57).
T2 construct: also called SID 1-57
T2 sequence: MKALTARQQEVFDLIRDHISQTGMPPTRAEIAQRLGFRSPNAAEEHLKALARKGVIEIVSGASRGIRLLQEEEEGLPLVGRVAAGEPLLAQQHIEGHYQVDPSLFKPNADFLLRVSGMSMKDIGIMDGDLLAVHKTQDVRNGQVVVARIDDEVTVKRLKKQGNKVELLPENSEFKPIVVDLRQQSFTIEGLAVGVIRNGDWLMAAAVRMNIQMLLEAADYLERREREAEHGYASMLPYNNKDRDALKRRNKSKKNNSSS
Described as above.

Test [6] addresses T3, GST-PAH2, a GST fusion to the PAH2 domain of mSIN3A (UniProt P08515 1-218 = GST; Q60520 300-383).
T3 construct: Expressed in bacteria, resolved by SDS-PAGE and immobilised on PVDF membrane
The experiment in a line: far Western blot, probe purified under native conditions.
Method: Recombinant GST and GST-PAH2 were expressed in bacteria and purified on glutathione-Sepharose 4B (Amersham Pharmacia Biotech). […] The blots were blocked in far Western Buffer (PBS containing 0.1% Nonidet P-40, 1 mM EDTA, and 1 mM dithiothreitol) containing 5% nonfat dry milk for 1 h at 4° C. Purified probes were added to blots in 5 ml of far Western buffer containing 1% nonfat dry milk and incubated together at 4° C. overnight with rocking. Following washing with far Western buffer, the blots were air-dried and exposed 48 h for autoradiography.

For test [7], the target named is T4, PAH2 domain of mSin3A (GST-PAH2) (Mus musculus, UniProt Q60520).
T4 construct: GST-PAH2, a GST fusion to the PAH2 domain of mSIN3A; made in house; host or cells: bacteria
T4 sequence (Q60520 300-383 limits assumed): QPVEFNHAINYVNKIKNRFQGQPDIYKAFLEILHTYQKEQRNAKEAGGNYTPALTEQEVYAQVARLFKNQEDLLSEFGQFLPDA
The test can be described thus: Far Western blot, 35S-labeled Mad1 probes on immobilized GST-PAH2. In kind it is binding, mammalian. How it is done: (§1) Far Western Blotting—Mad1His and Mad1(L12P/A16P)His (Ayer et al., Cell 80:767-776 (1995)), which have a polyhistidine tag fused to their carboxyl termini, were translated in vitro in 50 μl reactions using the TNT coupled reticulocyte lysate system (Promega) and ^35[S]methionine (NEN Life Science Products) and were purified under native or denaturing conditions. Ni^2+-NTA agarose (Qiagen) was blocked with rabbit reticuocyte lysate (diluted 1:3 in PBS) for 30 min at 4° C. and then incubated with the in vitro synthesized Mad1His and Mad1(L12P/A16P)His for 30 min at 4° C. in PBS native or 6 M guanidine hydrochloride, 0.1 M NaH2PO4, and 0.01 M Tris, pH 8.0 (denaturating conditions) followed by extensive washing with the same buffers. The bound proteins were eluted in PBS containing 0.5 M imidazole and then dialyzed overnight against PBS to remove the imidazole and allow for renaturation. Recombinant GST and GST-PAH2 were expressed in bacteria and purified on glutathione-Sepharose 4B (Amersham Pharmacia Biotech). The blots were prepared by resolving 1 μg of GST-PAH2 on 15% SDS-PAGE, followed by transfer to PVDF membrane. The blots were blocked in far Western Buffer (PBS containing 0.1% Nonidet P-40, 1 mM EDTA, and 1 mM dithiothreitol) containing 5% nonfat dry milk for 1 h at 4° C. Purified probes were added to blots in 5 ml of far Western buffer containing 1% nonfat dry milk and incubated together at 4° C. overnight with rocking. Following washing with far Western buffer, the blots were air-dried and exposed 48 h for autoradiography.
To determine whether the interaction between Mad1 and mSin3A is direct, we used far Western blot assays. In these experiments GST-PAH2, a GST fusion to the PAH2 domain of mSIN3A, and GST alone were resolved by SDS-PAGE followed by transfer to a PVDF membrane. […] Equal efficiency of transcription and translation of these proteins was confirmed by SDS-PAGE followed by autoradiography to detect the proteins (data not shown). These protein probes were purified on Ni^2+-NTA agarose under native or denaturing conditions. […]

In a further test the target is T5, GST (Schistosoma japonicum, UniProt P08515).
T5 construct: made in house; host or cells: bacteria
T5 sequence (P08515 whole entry): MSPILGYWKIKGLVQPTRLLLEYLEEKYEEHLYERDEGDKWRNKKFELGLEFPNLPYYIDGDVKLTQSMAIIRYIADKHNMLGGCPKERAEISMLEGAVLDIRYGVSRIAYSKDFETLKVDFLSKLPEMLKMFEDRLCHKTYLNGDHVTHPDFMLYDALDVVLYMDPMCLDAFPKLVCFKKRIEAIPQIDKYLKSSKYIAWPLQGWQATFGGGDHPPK
The test can be described thus: Far Western blot, 35S-labeled Mad1 probes on immobilized GST alone. In kind it is binding. To be noted: probe purified under denaturing conditions. How it is done:
as §1, with “Purified probes were added to blots in 5 ml of far Western buffer containing 1% nonfat dry milk and incubated together at 4° C. overnight with rocking. Following washing with far Western buffer, the blots were air-dried and exposed 48 h for autoradiography.” left out

[8] abbreviates: probe purified under denaturing conditions and renatured.

Regarding “GALSID Q10A, E14A, D17A: minimal SID containing the mutations Q10A, E14A, and D17A in the context of a GALDBD fusion (NIAMLLAAAAYLE; also: GAL4 DNA binding domain fusion; UniProt Q05195 8-20, looked up, variant Q10A E14A D17A)”, the “repression of reporter activity” value in test [1] is “repressed transcription to the same extent as the wild-type minimal SID”. Regarding “fusion between the first 35 amino acids of Mad1 and the GALDBD (from UniProt P04386 1-147; Q05195 1-35)”, the repression of a GAL4 DNA binding domain-responsive luciferase reporter in 293 cells in test [2] was 7 fold.

B1: fusion between the first 35 amino acids of Mad1 and the GALDBD: first 35 amino acids of Mad1 fused to the GAL4 DNA binding domain (protein)
chain: MKLLSSIEQACDICRLKKLKCSKEKPKCAKCLKNNWECRYSPKTKRSPLTRAHLTEVESRLERLEQLFLLIFPREDLDMILKMDSLQDIKALLTGLFVQDNVNKDAVTDRLASVETDMPLTLRQHRISATSSSEESSNKGQRQLTVSMAAAVRMNIQMLLEAADYLERREREAEHGYASMLP
As to B1, the “repression of reporter activity” value in test [1] was “approximately 7 fold”.

B2: LexA fused to SID 1-27 (other)
chain: MKALTARQQEVFDLIRDHISQTGMPPTRAEIAQRLGFRSPNAAEEHLKALARKGVIEIVSGASRGIRLLQEEEEGLPLVGRVAAGEPLLAQQHIEGHYQVDPSLFKPNADFLLRVSGMSMKDIGIMDGDLLAVHKTQDVRNGQVVVARIDDEVTVKRLKKQGNKVELLPENSEFKPIVVDLRQQSFTIEGLAVGVIRNGDWLMAAAVRMNIQMLLEAADYLERREREAE
notes: Carboxyl-terminal deletion of 30 amino acids from SID 1-57
With B2, in test [3], the “fold better binding than SID 1-57 (relative beta-galactosidase activity)” value was approximately 2 fold. Take B3: the binding result in test [4] and in test [5] was “binds” each time.

B4: GALSID(8-20) WT: amino acids 8-20 from Mad1 fused to the GAL4 DNA binding domain (protein)
chain: MKLLSSIEQACDICRLKKLKCSKEKPKCAKCLKNNWECRYSPKTKRSPLTRAHLTEVESRLERLEQLFLLIFPREDLDMILKMDSLQDIKALLTGLFVQDNVNKDAVTDRLASVETDMPLTLRQHRISATSSSEESSNKGQRQLTVSNIQMLLEAADYLE
For B4, the “repression of reporter activity” value was “repressed transcription to approximately the same level” in test [1] and “functions similarly to the longer 35-amino acid SID” in test [1] (listed as minimal thirteen amino acid SID).

B5: Mad1(L12P/A16P)His (other, human, UniProt Q05195 1-221, looked up)
chain: MAAAVRMNIQMPLEAPDYLERREREAEHGYASMLPYNNKDRDALKRRNKSKKNNSSSRSTHNEMEKNRRAHLRLCLEKLKGLVPLGPESSRHTTLSLLTKAKLHIKKLEDCDRKAVHQIDQLQREQRHLKRQLEKLGIERIRMDSIGSTVSSERSDSDREEIDVDVESTDYLTGDLDWSSSSVSDSDERGSMQSLGSDEGYSSTSIKRIKLQDSHKACLGL
modifications: 35S-methionine labelled (in vitro translated)
notes: Mutant Mad1 probe in the far Western blot; not shown: polyhistidine tag fused to the carboxyl terminus
Turning to B5, the binding result in test [6] was “no binding”.

B6: Mad1(L12P/A16P)His: polyhistidine-tagged mutant Mad1 protein with L12P/A16P point mutations in the SID (protein)
chain: MAAAVRMNIQMPLEAPDYLERREREAEHGYASMLPYNNKDRDALKRRNKSKKNNSSSRSTHNEMEKNRRAHLRLCLEKLKGLVPLGPESSRHTTLSLLTKAKLHIKKLEDCDRKAVHQIDQLQREQRHLKRQLEKLGIERIRMDSIGSTVSSERSDSDREEIDVDVESTDYLTGDLDWSSSSVSDSDERGSMQSLGSDEGYSSTSIKRIKLQDSHKACLGL
modifications: left off: small tags and cut ends
notes: polyhistidine-tagged mutant Mad1 protein with L12P/A16P point mutations in the SID
On to B6, for which the “interaction with GST-PAH2” value in test [7] (setting [8]) is listed as “did not interact”. Moreover, the “interaction with GST alone” value in the test with GST is recorded as “did not interact”.

B7: Mad1His: in vitro translated 35S-labeled Mad1 with a polyhistidine tag fused to its carboxyl terminus (protein)
chain: MAAAVRMNIQMLLEAADYLERREREAEHGYASMLPYNNKDRDALKRRNKSKKNNSSSRSTHNEMEKNRRAHLRLCLEKLKGLVPLGPESSRHTTLSLLTKAKLHIKKLEDCDRKAVHQIDQLQREQRHLKRQLEKLGIERIRMDSIGSTVSSERSDSDREEIDVDVESTDYLTGDLDWSSSSVSDSDERGSMQSLGSDEGYSSTSIKRIKLQDSHKACLGL
modifications: left off: small tags and cut ends
notes: in vitro translated 35S-labeled Mad1 with a polyhistidine tag fused to its carboxyl terminus
With B7, the figures for the “interaction with GST-PAH2” value in test [7] (setting [8]) and in test [7] (probe purified under native conditions) were “also interacted with GST-PAH2” and “able to interact”, respectively. In the test with GST, the “interaction with GST alone” value is “not with GST alone”.
